Source: patent US20240018502A1
Positions count from the first letter of the chain named. In names and notes the source's numbering stands. Each block holds one binder with its values, some of them ahead of it.

Assays:
[1] = molecular target: human complement protein C3 (human) (UniProt P01024); experiment: cell-based or functional assay
[2] = molecular target: plasma purified human complement protein C3 (human) (UniProt P01024); experiment: cell-based or functional assay
plasma purified human complement protein C3 (human), sequence (P01024 23-667, chain 1 of 2): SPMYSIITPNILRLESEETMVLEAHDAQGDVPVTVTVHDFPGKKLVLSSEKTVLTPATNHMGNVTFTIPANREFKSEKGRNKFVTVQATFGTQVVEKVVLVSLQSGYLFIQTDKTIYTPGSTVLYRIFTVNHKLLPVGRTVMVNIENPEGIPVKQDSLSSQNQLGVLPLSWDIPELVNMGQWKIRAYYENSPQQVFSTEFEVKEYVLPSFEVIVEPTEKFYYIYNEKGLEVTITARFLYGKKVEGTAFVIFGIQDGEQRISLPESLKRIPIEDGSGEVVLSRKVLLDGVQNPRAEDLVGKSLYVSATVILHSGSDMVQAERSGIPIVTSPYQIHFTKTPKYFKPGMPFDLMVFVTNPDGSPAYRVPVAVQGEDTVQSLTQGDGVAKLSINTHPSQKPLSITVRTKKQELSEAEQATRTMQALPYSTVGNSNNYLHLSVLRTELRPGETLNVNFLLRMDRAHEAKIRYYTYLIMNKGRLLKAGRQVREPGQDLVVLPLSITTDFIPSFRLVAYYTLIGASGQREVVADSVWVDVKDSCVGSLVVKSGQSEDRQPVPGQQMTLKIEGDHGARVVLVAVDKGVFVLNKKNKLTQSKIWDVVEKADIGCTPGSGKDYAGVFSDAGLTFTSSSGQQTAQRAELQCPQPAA
plasma purified human complement protein C3 (human), sequence (P01024 672-1663, chain 2 of 2): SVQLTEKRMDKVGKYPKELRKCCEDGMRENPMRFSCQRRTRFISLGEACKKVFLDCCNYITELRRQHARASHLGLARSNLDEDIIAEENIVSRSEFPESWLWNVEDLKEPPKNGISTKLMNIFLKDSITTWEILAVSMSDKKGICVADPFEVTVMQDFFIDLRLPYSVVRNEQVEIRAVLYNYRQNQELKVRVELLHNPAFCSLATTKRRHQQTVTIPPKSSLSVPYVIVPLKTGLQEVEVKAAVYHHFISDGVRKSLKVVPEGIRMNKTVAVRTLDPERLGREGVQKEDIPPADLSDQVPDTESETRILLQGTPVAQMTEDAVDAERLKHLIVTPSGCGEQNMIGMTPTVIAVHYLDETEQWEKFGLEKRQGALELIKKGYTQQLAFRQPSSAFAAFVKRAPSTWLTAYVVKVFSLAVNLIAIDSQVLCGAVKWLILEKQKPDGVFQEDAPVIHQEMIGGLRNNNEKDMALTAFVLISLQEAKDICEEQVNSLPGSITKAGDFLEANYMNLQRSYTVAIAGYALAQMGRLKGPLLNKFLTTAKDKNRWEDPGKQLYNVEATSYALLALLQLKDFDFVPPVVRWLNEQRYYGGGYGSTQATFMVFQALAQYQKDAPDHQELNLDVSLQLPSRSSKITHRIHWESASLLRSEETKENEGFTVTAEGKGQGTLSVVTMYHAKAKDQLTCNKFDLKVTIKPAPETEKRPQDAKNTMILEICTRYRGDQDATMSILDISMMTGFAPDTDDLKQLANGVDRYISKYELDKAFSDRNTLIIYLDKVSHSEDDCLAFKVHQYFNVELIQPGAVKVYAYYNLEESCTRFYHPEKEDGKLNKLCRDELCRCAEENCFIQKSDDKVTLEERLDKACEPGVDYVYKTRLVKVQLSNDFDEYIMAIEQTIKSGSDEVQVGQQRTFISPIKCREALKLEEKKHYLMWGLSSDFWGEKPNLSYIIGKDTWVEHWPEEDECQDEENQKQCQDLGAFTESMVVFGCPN

human complement protein C3 (human), sequence (P01024 23-667, chain 1 of 2): as the sequence (P01024 23-667, chain 1 of 2) above
human complement protein C3 (human), sequence (P01024 672-1663, chain 2 of 2): as the sequence (P01024 672-1663, chain 2 of 2) above

B2: Q38H/I41A/D60bV/F60eR/Y60gW/D96I/F97N/T98G/F99L/C122S/G151H/Q175L/Q192D (enzyme)
chain: VVGGTDADEGEWPWQVSLHALGHGHACGASLISPNWLVSAAHCYIDVRGRRWSDPTQWTAFLGLHDQSQRSAPGVQERRLKRIISHPFFNINGLDYDIALLELEKPAEYSSMVRPISLPDASHVFPAGKAIWVTGWGHTQYGGTHALILQKGEIRVINQTTCENLLPQLITPRMMCVGFLSGGVDSCDGDSGGPLSSVEADGRIFQAGVVSWGDGCAQRNKPGVYTRLPLFRDWIKENTGV
EC50 (nM), cleavage of purified hC3 in vitro [1]: 2.52 nM

B3: Q38G/H40R/I41H/D60bN/F97D/F99L/C122S/Q175L/Q192G (enzyme)
chain: VVGGTDADEGEWPWQVSLHALGGGRHCGASLISPNWLVSAAHCYIDNRGFRYSDPTQWTAFLGLHDQSQRSAPGVQERRLKRIISHPFFNDDTLDYDIALLELEKPAEYSSMVRPISLPDASHVFPAGKAIWVTGWGHTQYGGTGALILQKGEIRVINQTTCENLLPQLITPRMMCVGFLSGGVDSCGGDSGGPLSSVEADGRIFQAGVVSWGDGCAQRNKPGVYTRLPLFRDWIKENTGV
EC50 (nM), cleavage of purified hC3 in vitro [1]: 0.867 nM

B10: Q38H/I41A/D60bV/F60eR/Y60gW/D96P/ins97aN/F97W/T98G/F99L/C122S/G151H/Q175L/Q192E (enzyme)
chain: VVGGTDADEGEWPWQVSLHALGHGHACGASLISPNWLVSAAHCYIDVRGRRWSDPTQWTAFLGLHDQSQRSAPGVQERRLKRIISHPFFNPWNGLDYDIALLELEKPAEYSSMVRPISLPDASHVFPAGKAIWVTGWGHTQYGGTHALILQKGEIRVINQTTCENLLPQLITPRMMCVGFLSGGVDSCEGDSGGPLSSVEADGRIFQAGVVSWGDGCAQRNKPGVYTRLPLFRDWIKENTGV
EC50 (nM), cleavage of purified hC3 in vitro [1]: 1.11 nM

B11: Q38H/I41S/D60bF/F60eV/F97D/ins97aV/T98P/F99L/C122S/G151N/Q175L/Q192A (enzyme)
chain: B10 chain with A26S, V47F, R50V, W52Y, P91D, W92D, N93V, G94P, H146N, E189A
EC50 (nM), cleavage of purified hC3 in vitro [1]: 1.57 nM

B12: Q38H/I41A/D60bV/F60eR/Y60gW/D96P/ins97aN/F97W/T98G/F99L/C122S/G151H/Q175L/Q192D (enzyme)
chain: B10 chain with E189D
EC50 (nM), cleavage of purified hC3 in vitro [1]: 1.83 nM

B14: Q38H/I41S/D60bT/F60eS/Y60gW/D96K/F97G/ins97aA/T98P/F99L/C122S/G151H/Q175L/Q192D (enzyme)
chain: B10 chain with A26S, V47T, R50S, P91K, W92G, N93A, G94P, E189D
EC50 (nM), cleavage of purified hC3 in vitro [1]: 1.43 nM

B15: Q38F/I41S/D60bF/F60eR/Y60gF/F97T/ins97aE/T98G/F99L/C122S/G151N/Q175L/Q192V (enzyme)
chain: B10 chain with H23F, A26S, V47F, W52F, P91D, W92T, N93E, H146N, E189V
EC50 (nM), cleavage of purified hC3 in vitro [1]: 1.96 nM

B16: Q38H/I41A/D60bV/F60eR/Y60gW/D96P/ins97aN/F97W/T98G/F99L/C122S/G151N/Q175L/Q192D (enzyme)
chain: B10 chain with H146N, E189D
EC50 (nM), cleavage of purified hC3 in vitro [1]: 2.54 nM

B17: Q38H/I41A/D60bV/F60eT/Y60gW/ins97aE/F97T/T98G/F99L/C122S/Q175L/Q192E (enzyme)
chain: B10 chain with R50T, P91D, W92T, N93E, H146G
EC50 (nM), cleavage of purified hC3 in vitro [1]: 1.39 nM

B18: Q38H/I41A/D60bV/F60eR/Y60gW/D96I/ins97aN/F97Y/T98G/F99L/C122S/G151H/Q175L/Q192D (enzyme)
chain: B10 chain with P91I, W92Y, E189D
EC50 (nM), cleavage of purified hC3 in vitro [1]: 1.57 nM

B21: Q38H/I41A/D60bT/F60eH/Y60gW/ins97aE/F97T/T98G/F99L/C122S/Q175L/Q192D (enzyme)
chain: B10 chain with V47T, R50H, P91D, W92T, N93E, H146G, E189D
EC50 (nM), cleavage of purified hC3 in vitro [1]: 2.28 nM

B22: Q38H/I41S/D60bT/F60eS/Y60gW/D96F/F97D/ins97aE/T98S/F99L/C122S/G151H/Q175L/Q192A (enzyme)
chain: B10 chain with A26S, V47T, R50S, P91F, W92D, N93E, G94S, E189A
EC50 (nM), cleavage of purified hC3 in vitro [1]: 1.17 nM

B23: Q38H/I41A/D60bV/F60eR/Y60gW/D96P/ins97aN/F97W/T98G/F99L/C122S/G151N/Q175L/Q192E (enzyme)
chain: B10 chain with H146N
EC50 (nM), cleavage of purified hC3 in vitro [1]: 1.51 nM

B24: Q38H/I41A/D60bV/F60eR/Y60gW/D96I/ins97aN/F97Y/T98G/F99L/C122S/G151N/Q175L/Q192D (enzyme)
chain: B10 chain with P91I, W92Y, H146N, E189D
EC50 (nM), cleavage of purified hC3 in vitro [1]: 2.23 nM

B25: Q38H/I41A/D60bV/F60eA/Y60gW/F97T/ins97aE/T98G/F99L/C122S/Q175L/Q192V (enzyme)
chain: B10 chain with R50A, P91D, W92T, N93E, H146G, E189V
EC50 (nM), cleavage of purified hC3 in vitro [1]: 1.57 nM

B26: Q38H/I41A/D60bV/F60eR/Y60gW/D96S/ins97aR/F97A/T98S/F99L/C122S/G151N/Q175L/Q192T (enzyme)
chain: B10 chain with P91S, W92A, N93R, G94S, H146N, E189T
EC50 (nM), cleavage of purified hC3 in vitro [1]: 2.07 nM

B27: Q38F/I41A/D60bT/F60eG/Y60gW/ins97aE/F97T/T98G/F99L/C122S/Q175L/Q192E (enzyme)
chain: B10 chain with H23F, V47T, R50G, P91D, W92T, N93E, H146G
EC50 (nM), cleavage of purified hC3 in vitro [1]: 1.25 nM

B29: Q38H/I41A/D60bT/F60eK/Y60gW/F97T/ins97aE/T98G/F99L/C122S/Q175L/Q192A (enzyme)
chain: B10 chain with V47T, R50K, P91D, W92T, N93E, H146G, E189A
EC50 (nM), cleavage of purified hC3 in vitro [1]: 2.71 nM

B30: Q38H/I41A/D60bV/F60eR/Y60gW/ins97aE/F97T/T98G/F99L/C122S/Q175L/Q192D (enzyme)
chain: B10 chain with P91D, W92T, N93E, H146G, E189D
EC50 (nM), cleavage of purified hC3 in vitro [1]: 2.37 nM

B32: Q38H/I41S/D60bS/ins97aV/F97D/T98P/F99L/M117L/C122S/I136T/Q192G/D217I (enzyme)
chain: VVGGTDADEGEWPWQVSLHALGHGHSCGASLISPNWLVSAAHCYIDSRGFRYSDPTQWTAFLGLHDQSQRSAPGVQERRLKRIISHPFFNDDVPLDYDIALLELEKPAEYSSLVRPISLPDASHVFPAGKATWVTGWGHTQYGGTGALILQKGEIRVINQTTCENLLPQQITPRMMCVGFLSGGVDSCGGDSGGPLSSVEADGRIFQAGVVSWGIGCAQRNKPGVYTRLPLFRDWIKENTGV
EC50 (nM), cleavage of purified hC3 in vitro [1]: 2.43 nM

The next lines start with the values.

EC50 (nM), cleavage of purified hC3 in vitro [1]: 1.08 nM
B1: Q38Y/I41S/D60bT/F60eR/Y60gW/D96M/F97N/T98G/F99L/C122S/G151N/Q175L (enzyme)
chain: B2 chain with H23Y, A26S, V47T, I91M, H145N, D188Q

EC50 of hC3 cleavage [2]: 70.8 nM
B4: MTSP-1 H40R/I41H/F97D/F99L/C122S/G151D/Q175M/Q192G/D217V (enzyme)
chain: B3 chain with G23Q, N47D, G145D, L169M, D214V

EC50 of hC3 cleavage [2]: 589 nM
B5: MTSP-1 H40K/I41M/Y60gF/F97D/F99L/C122S/G151N/Q175L/Q192D (enzyme)
chain: B3 chain with G23Q, R25K, H26M, N47D, Y52F, G145N, G188D

EC50 (nM), cleavage of purified hC3 in vitro [1]: 2.84 nM
B6: I41G/F97I/F99L/C122S/G151L/Q175M/Q192S/D217V (enzyme)
chain: B3 chain with G23Q, R25H, H26G, N47D, D92I, G145L, L169M, G188S, D214V

EC50 of hC3 cleavage [2]: 470 nM
B7: MTSP-1 H40R/I41H/F97D/C122S/G151N/Q175M/Q192A/D217S/K224R (enzyme)
chain: B3 chain with G23Q, N47D, L94F, G145N, L169M, G188A, D214S, K221R

EC50 of hC3 cleavage [2]: 7.94 nM
B8: MTSP-1 H40R/I41H/Y60gH/F97D/F99L/C122S/Q175M/Q192G/D217I/K224R (enzyme)
chain: B3 chain with G23Q, N47D, Y52H, L169M, D214I, K221R

EC50 (nM), cleavage of purified hC3 in vitro [1]: 2.76 nM
B9: H40R/I41H/F97D/F99L/C122S/Q175M/Q192G/D217V/K224Y (enzyme)
chain: B3 chain with G23Q, N47D, L169M, D214V, K221Y

EC50 (nM), cleavage of purified hC3 in vitro [1]: 2.85 nM
B13: Q38H/I41S/D60bT/F60eS/Y60gW/D96V/F97G/ins97aV/T98P/F99L/C122S/G151H/Q175L/Q192D (enzyme)
chain: B10 chain with A26S, V47T, R50S, P91V, W92G, N93V, G94P, E189D

EC50 (nM), cleavage of purified hC3 in vitro [1]: 1.31 nM
B19: Q38H/I41S/D60bT/F60eS/Y60gW/ins97aV/F97D/T98P/F99L/C122S/G151H/Q175L (enzyme)
chain: B10 chain with A26S, V47T, R50S, P91D, W92D, N93V, G94P, E189Q

EC50 (nM), cleavage of purified hC3 in vitro [1]: 1.59 nM
B20: Q38H/I41S/D60bT/F60eS/Y60gW/D96L/ins97aG/F97D/T98N/F99L/C122S/G151H/Q175L/Q192E (enzyme)
chain: B10 chain with A26S, V47T, R50S, P91L, W92D, N93G, G94N

EC50 (nM), cleavage of purified hC3 in vitro [1]: 1.45 nM
B28: Q38H/I41S/D60bT/F60eS/Y60gW/D96K/F97G/ins97aV/T98P/F99L/C122S/G151H/Q175L (enzyme)
chain: B10 chain with A26S, V47T, R50S, P91K, W92G, N93V, G94P, E189Q

EC50 (nM), cleavage of purified hC3 in vitro [1]: 1.53 nM
B31: Q38Y/I41A/D60bL/F60eQ/ins97aV/F97D/T98P/F99L/C122S/G151N/Q175M/Q192A (enzyme)
chain: B32 chain with H23Y, S26A, S47L, F50Q, L113M, T132I, G146N, Q170M, G189A, I215D

EC50 (nM), cleavage of purified hC3 in vitro [1]: 0.866 nM
B33: ins97aA/F97G/T98L/C122S/Q175M/Q192A/D217I/K224R (enzyme)
chain: VVGGTDADEGEWPWQVSLHALGQGHICGASLISPNWLVSAAHCYIDDRGFRYSDPTQWTAFLGLHDQSQRSAPGVQERRLKRIISHPFFNDGALFDYDIALLELEKPAEYSSMVRPISLPDASHVFPAGKAIWVTGWGHTQYGGTGALILQKGEIRVINQTTCENLLPQMITPRMMCVGFLSGGVDSCAGDSGGPLSSVEADGRIFQAGVVSWGIGCAQRNRPGVYTRLPLFRDWIKENTGV

EC50 (nM), cleavage of purified hC3 in vitro [1]: 2.42 nM
B34: ins97aY/F97G/T98V/C122S/Q175M/Q192S/D217V (enzyme)
chain: B33 chain with A93Y, L94V, A189S, I215V, R222K

EC50 (nM), cleavage of purified hC3 in vitro [1]: 1.97 nM
B35: Q38H/I41S/D60bY/D96Y/ins97aV/F97D/T98P/F99L/L106M/C122S/I136M/Q192G/Q209L/D217T (enzyme)
chain: B32 chain with S47Y, D91Y, L102M, L113M, T132M, Q207L, I215T
